# According to IntAct's records for PubMed 20185822:
# B1: Autoimmune regulator (Homo sapiens), O43918 (parent)
# chain: MATDAALRRLLRLHRTEIAVAVDSAFPLLHALADHDVVPEDKFQETLHLKEKEGCPQAFHALLSWLLTQDSTAILDFWRVLFKDYNLERYGRLQPILDSFPKDVDLSQPRKGRKPPAVPKALVPPPRLPTKRKASEEARAAAPAALTPRGTASPGSQLKAKPPKKPESSAEQQRLPLGNGIQTMSASVQRAVAMSSGDVPGARGAVEGILIQQVFESGGSKKCIQVGGEFYTPSKFEDSGSGKNKARSSSGPKPLVRAKGAQGAAPGGGEARLGQQGSVPAPLALPSDPQLHQKNEDECAVCRDGGELICCDGCPRAFHLACLSPPLREIPSGTWRCSSCLQATVQEVQPRAEEPRPQEPPVETPLPPGLRSAGEEVRGPPGEPLAGMDTTLVYKHLPAPPSAAPLPGLDSSALHPLLCVGPEGQQNLAPGARCGVCGDGTDVLRCTHCAAAFHWRCHFPAGTSRPGTGLRCRSCSGDVTPAPVEGVLAPSPARLAPGPAKDDTASHEPALHRDDLESLLSEHTFDGILQWAIQSMARPAAPFPS
# Variants of: B1
# Conditions: with daxx_human DAXX
row,effect of a mutation on the interaction,Variant
1,decreasing interaction,W78R
